Our source for the Kd values is article PMC11189300 (2024).

The target in one experiment is Mis12C^M5 (NSL1 I216A) (human, UniProt Q9H081 1-205; Q6P1K2 1-205; Q96IY1 1-281; Q9H410 1-356, I216A). Nature of the experiment: ITC.
A further experiment deals with Mis12C^M3 (human, UniProt Q9H081 1-205; Q6P1K2 1-205; Q96IY1 1-281; Q9H410 1-356). In words: ITC.
The target of a further experiment is Mis12C^M4 (human, UniProt Q9H081 1-205; Q6P1K2 1-205; Q96IY1 1-281; Q9H410 1-356). In words: ITC.
For experiment [1], the target named is T1, ZWINT^M1 (human, UniProt O95229 1-277). In words: BLI; Kd1. In general terms: Biolayer interferometry detects binding as a change in optical thickness at a sensor tip.
The target in experiment [2] is T2, ZWINT^M2 (human, UniProt O95229 1-277). Nature of the experiment: BLI; Kd1.
The target in experiment [3] is T1, ZWINT^M1. In words: BLI; Kd2 (second site).
Experiment [4] deals with T2, ZWINT^M2. In words: BLI; Kd2 (second site).

Sequence of Mis12C^M3 (Q9H081 whole entry, chain 1 of 4): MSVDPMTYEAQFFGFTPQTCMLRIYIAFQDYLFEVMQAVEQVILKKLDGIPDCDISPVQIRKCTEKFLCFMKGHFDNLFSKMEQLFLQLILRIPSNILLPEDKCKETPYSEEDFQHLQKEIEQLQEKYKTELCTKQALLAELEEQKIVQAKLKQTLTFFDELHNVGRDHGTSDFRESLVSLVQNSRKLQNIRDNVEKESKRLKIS
Sequence of Mis12C^M3 (Q6P1K2 whole entry, chain 2 of 4): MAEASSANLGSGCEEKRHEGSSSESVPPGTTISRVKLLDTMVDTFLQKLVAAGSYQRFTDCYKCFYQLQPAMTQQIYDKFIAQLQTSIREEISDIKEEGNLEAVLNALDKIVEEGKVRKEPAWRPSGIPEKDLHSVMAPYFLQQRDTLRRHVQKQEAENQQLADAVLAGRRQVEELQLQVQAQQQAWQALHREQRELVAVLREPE
Sequence of Mis12C^M3 (Q96IY1 whole entry, chain 3 of 4): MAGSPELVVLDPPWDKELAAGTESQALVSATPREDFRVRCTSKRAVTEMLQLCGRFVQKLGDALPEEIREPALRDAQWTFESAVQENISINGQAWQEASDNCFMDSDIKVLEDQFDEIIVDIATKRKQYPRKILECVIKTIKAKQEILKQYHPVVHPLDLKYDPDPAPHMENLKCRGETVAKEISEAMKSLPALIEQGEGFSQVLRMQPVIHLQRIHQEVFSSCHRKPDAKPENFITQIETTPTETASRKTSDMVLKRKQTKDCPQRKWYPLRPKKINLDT
Sequence of Mis12C^M3 (Q9H410 whole entry, chain 4 of 4): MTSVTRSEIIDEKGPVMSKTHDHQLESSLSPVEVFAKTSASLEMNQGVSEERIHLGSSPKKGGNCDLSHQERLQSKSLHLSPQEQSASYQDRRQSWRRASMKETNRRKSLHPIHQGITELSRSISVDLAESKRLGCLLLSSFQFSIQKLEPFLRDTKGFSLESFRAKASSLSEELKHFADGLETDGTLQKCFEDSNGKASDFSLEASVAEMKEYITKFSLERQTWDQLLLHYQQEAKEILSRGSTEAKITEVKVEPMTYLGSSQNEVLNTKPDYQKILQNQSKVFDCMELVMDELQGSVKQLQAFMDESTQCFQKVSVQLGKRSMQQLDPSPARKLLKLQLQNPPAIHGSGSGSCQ
Sequence of Mis12C^M5 (NSL1 I216A) (Q9H081 whole entry, chain 1 of 4): as the sequence (Q9H081 whole entry, chain 1 of 4) above
Sequence of Mis12C^M5 (NSL1 I216A) (Q6P1K2 whole entry, chain 2 of 4): as the sequence (Q6P1K2 whole entry, chain 2 of 4) above
Sequence of Mis12C^M5 (NSL1 I216A) (Q96IY1 whole entry I216A, chain 3 of 4): as the sequence (Q96IY1 whole entry, chain 3 of 4) above, with I216A counted along it
Sequence of Mis12C^M5 (NSL1 I216A) (Q9H410 whole entry, chain 4 of 4): as the sequence (Q9H410 whole entry, chain 4 of 4) above
Sequence of Mis12C^M4 (Q9H081 whole entry, chain 1 of 4): as the sequence (Q9H081 whole entry, chain 1 of 4) above
Sequence of Mis12C^M4 (Q6P1K2 whole entry, chain 2 of 4): as the sequence (Q6P1K2 whole entry, chain 2 of 4) above
Sequence of Mis12C^M4 (Q96IY1 whole entry, chain 3 of 4): as the sequence (Q96IY1 whole entry, chain 3 of 4) above
Sequence of Mis12C^M4 (Q9H410 whole entry, chain 4 of 4): as the sequence (Q9H410 whole entry, chain 4 of 4) above

B1: full-length SPC24/SPC25 (complex)
chain 1: MAAFRDIEEVSQGLLSLLGANRAEAQQRRLLGRHEQVVERLLETQDGAEKQLREILTMEKEVAQSLLNAKEQVHQGGVELQQLEAGLQEAGEEDTRLKASLLQLTRELEELKEIEADLERQEKEVDEDTTVTIPSAVYVAQLYHQVSKIEWDYECEPGMVKGIHHGPSVAQPIHLDSTQLSRKFISDYLWSLVDTEW
chain 2: MVEDELALFDKSINEFWNKFKSTDTSCQMAGLRDTYKDSIKAFAEKLSVKLKEEERMVEMFLEYQNQISRQNKLIQEKKDNLLKLIAEVKGKKQELEVLTANIQDLKEEYSRKKETISTANKANAERLKRLQKSADLYKDRLGLEIRKIYGEKLQFIFTNIDPKNPESPFMFSLHLNEARDYEVSDSAPHLEGLAEFQENVRKTNNFSAFLANVRKAFTATVYN
The Kd is the constant that tells how readily two partners part at equilibrium. A lower Kd goes with higher affinity. Turning to B1, the Kd with Mis12C^M5 (NSL1 I216A) stood at 774 nM; with Mis12C^M3 it was 1170 nM; with Mis12C^M4 it was 451 nM.

B2: KNL1 (construct of the BLI titrations with ZWINT) (domain or fragment)
chain: GKLVQSAQNEREKLQIKIDEMDKILKKIDNCLTEMETETKNLEDEEKNNPVEEWDSEMRAAEKELEQLKTEEEELQRNLLELEVQKEQTLAQIDFMQKQRNRTEELLDQLSLSEWDVVEWSDDQAVFTFVYDTIQLTITFEESVVGFPFLDKRYRKIVDVNFQSLLDEDQAPPSSLLVHKLIFQYVEEKESWKKTCTTQHQLPKMLEEFSLVVHHCRLLGEEIEYLKRWGPNYNLMNIDINNNELRLLFSSSAAFAKFEITLFLSAYYPSVPLPSTIQNHVGNTSQDDIATILSKVPLENNYLKNVVKQIYQDLFQDCHFYH
Turning to B2, the equilibrium dissociation constant (Kd) with ZWINT^M1 [1] came out at 235 nM; with ZWINT^M2 [2], 1170 nM; with ZWINT^M1 [3], 25.1 nM; in the experiment with ZWINT^M2 [4], 250 nM.
